Measured values: PMC6726503 (Structure (London, England : 1993), 2019)

Molecular target: T1, TGF-β2DM:TβRII binary complex (human, UniProt P37173 23-166)
T1 chain 1: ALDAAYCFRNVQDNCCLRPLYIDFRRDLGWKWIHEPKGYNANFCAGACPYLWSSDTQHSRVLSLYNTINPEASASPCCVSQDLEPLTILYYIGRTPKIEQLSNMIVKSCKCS
T1 chain 2: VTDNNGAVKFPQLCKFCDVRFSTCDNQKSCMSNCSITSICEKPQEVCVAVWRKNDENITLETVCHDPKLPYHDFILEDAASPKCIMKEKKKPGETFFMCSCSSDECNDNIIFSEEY
Test: SEC-MALS

- stoichiometry N: 1 BG_(O-ZP) per TGF-β2DM dimer
B1: full-length rat betaglycan ectodomain (domain or fragment, UniProt P26342 24-789, looked up)
chain: GPEPSTRCELSPINASHPVQALMESFTVLSGCASRGTTGLPREVHVLNLRSTDQGPGQRQREVTLHLNPIASVHTHHKPIVFLLNSPQPLVWHLKTERLAAGVPRLFLVSEGSVVQFPSGNFSLTAETEERNFPQENEHLLRWAQKEYGAVTSFTELKIARNIYIKVGEDQVFPPTCNIGKNFLSLNYLAEYLQPKAAEGCVLPSQPHEKEVHIIELITPSSNPYSAFQVDIIVDIRPAQEDPEVVKNLVLILKCKKSVNWVIKSFDVKGNLKVIAPNSIGFGKESERSMTMTKLVRDDIPSTQENLMKWALDNGYRPVTSYTMAPVANRFHLRLENNEEMRDEEVHTIPPELRILLDPDHPPALDNPLFPGEGSPNGGLPFPFPDIPRRGWKEGEDRIPRPKQPIVPSVQLLPDHREPEEVQGGVDIALSVKCDHEKMVVAVDKDSFQTNGYSGMELTLLDPSCKAKMNGTHFVLESPLNGCGTRHRRSTPDGVVYYNSIVVQAPSPGDSSGWPDGYEDLESGDNGFPGDGDEGETAPLSRAGVVVFNCSLRQLRNPSGFQGQLDGNATFNMELYNTDLFLVPSPGVFSVAENEHVYVEVSVTKADQDLGFAIQTCFLSPYSNPDRMSDYTIIENICPKDDSVKFYSSKRVHFPIPHAEVDKKRFSFLFKSVFNTSLLFLHCELTLCSRKKGSLKLPRCVTPDDACTSLDATMIWTMMQNKKTFTKPLAVVLQVDYKENVPSTKDSSPIPPPPPQIFHGLDTLTV
